The source of these data is patent publication US11905559B2, “Materials and methods for controlling gene expression” (priority 2016, dated 2024).

The test system of one data set is lac Z expression. Kind of data set: β-galactosidase reporter assay (xpt-lacZ fusion). The class given is cell-based, B. subtilis. To be noted: presence and absence of guanine; B. subtilis. Here is the method:
Kissing-loop mutants were analyzed to determine whether they can exert riboswitch activities by controlling transcription termination, given that the guanine binding was retained in all of them. To test this, a β-galactosidase reporter assay was performed in B.subtilis. […] The gene expression is repressed in wild-type due to the transcription termination in the presence of guanine. […] The fast kissing dynamics between the L2-L3 probably have a stabilizing effect on P1, and therefore an increase in the transcription termination is observed. […] This underscores that the L2-L3 dynamics are directly involved in the P1-helix formation, which affects the terminator hairpin downstream that ultimately results in an alteration of the riboswitch activities.
To assess if the aptamer mutants can exert a transcriptional control similar to the previously reported wild-type xpt-pbuX riboswitch, a xpt-lacZ fusion was constructed as described by Mandal et al., “Riboswitches control fundamental biochemical pathways in Bacillus subtilis and other bacteria”. Cell 113, 577-586 (2003). Briefly, nts −121 to +197 relative to the transcriptional start site of the xpt-pbuX operon from B. subtilis 1A1 (BGSC, Columbus, Ohio) was PCR amplified and cloned upstream of the lacZ reporter gene into pDG1661 vector. After confirming the cloned sequence, plasmid variants were integrated into the amyE locus of the 1A1 strain. Transformants were selected for double markers, specifically for chloramphenicol (5 μg/ml) resistance and sensitivity to spectinomycin (100 μg/ml). Selected B. subtilis colonies were subsequently grown in minimal media (25 g/L K2HPO4·3H2O, 6 g/L KH2PO4, 1 g/L sodium citrate, 0.2 g/l MgSO4·7H2O, 2 g/L Na2SO4, 50 μM FeCl3, 2 μM MnCl2, 50 μg/ml L-Tryptophan, 50 μg/ml L-Lysine, 50 μg/ml L-Methionine, 0.4 g/100 ml glucose, and 0.2 g/100 ml glutamate) at 37° C. with vigorous shaking. Purines were added at a final concentration of 0.1 mg/ml. Cells were harvested at mid-logarithmic growth phase (A600˜0.1-0.4), and resuspended in the above buffer for the reporter assay. The color development was recorded by measuring absorbance, A420 at the end of the reaction with appropriate controls. Data is represented in Miller Units calculated from the following relation:
[formula] where Δt is the total duration taken in the substrate cleavage by […], measured as absorbance, A420. The Miller Units shown in FIG. 4A represents mean±standard deviation from 3 independent experiments, wherein each independent experiment was performed in duplicate.

A short description of data set [1]: Isothermal titration calorimetry (ITC). The class given is binding. How it is done: For ITC experiments, wild-type G-aptamer and the mutant RNAs were synthesized by in vitro transcription of the DNA template and purified by denaturing polyacrylamide gel electrophoresis (PAGE). The ligand guanine was introduced in the syringe, while the RNA into the sample cell at a final concentration of 10 μM and 1 μM respectively. The concentrations were determined by absorbance reading using ε260=12010 M^−1 cm^−1 (guanine) and ε260=711400 M^−1 cm^−1 (RNA). The buffer in the syringe and the sample cell contained 50 mM K^+ Hepes (pH 7.5), 100 mM KCl, and 10 mM MgCl2. Binding reactions were performed at 30° C. on a MicroCal iTC200 instrument (Malvern) with a reference power of 6 μcal/sec, an initial delay of 60 secs and a stirring speed of 750 rpm. Guanine was titrated into the sample cell in 16 injections (2.5 μl each). The injection rate was 0.5 μl/sec and the spacing between the injections was maintained at 120 sec. Data was baseline corrected and fitted to a single-site binding model to obtain association constant (KA), stoichiometry (n) and binding enthalpy, ΔH. The dissociation constant (KD) and the binding free energy, ΔG was obtained from the fitted parameters using the following relations. All data analysis was performed using the Origin ITC software.
The ITC results are reported as mean±standard deviation from three independent experiments.

Data set [2] is described as follows: Constant-force (CF) single-molecule optical tweezers folding assay of guanine-aptamer RNAs in guanine buffer. The class given is physicochemical. To be noted: for Folding rate kf / Transition distance ΔX / Unfolding rate ku / ΔG (0): 200 nM G; for ΔG (0): zero force. From the text: The aptamer folding was monitored in real time using a constant-force (CF) assay. Equilibrium sampling techniques provide unprecedented insights into the rare events in the course of folding that are otherwise difficult to identify. The technique also allows for determination of the kinetic rates that has not been fully investigated in the guanine riboswitch. The relative dynamics of the helices have been investigated in ensemble and smFRET experiments, which indicated a non-dynamic P1-P3, upon which the P2 helix switches conformations. As shown in FIG. 6A (left panel), the RNA oscillated between the linear and the hairpin conformations (E↔D↔C) at 13 pN. The distances ΔXED=7.1±0.4 nm and ΔXDC=7.9±0.4 nm correspond to the folding of a 17±1 nt (P2) and 19±1 nt (P3) respectively (FIGS. 7A-B). The conversion of distances to nucleotides in CF assay are described in Table 2.
A miniaturized dual beam optical tweezers instrument was constructed with a sampling rate of 0.4, 4 and 40 kHz. Typically, in the tweezers set up (FIGS. 2A-E), a single-molecule of RNA is held between two beads via ˜550 nucleotide (nt) long Handles A and B. Preparation of Handles and the RNA is described in the section above. The streptavidin coated polystyrene bead (diameter 1.5-1.9 μm, Spherotech Inc.) is fixed on a micropipette via suction, and the anti-digoxigenin coated bead (diameter 4.0-4.9 μm, Spherotech Inc.) is held in the dual counter-propagating laser beam. The trap stiffness, K is measured at 0.04-0.06 pN/nm from the power spectrum analysis of the Brownian motion of the trapped bead. For power spectrum analysis, a polystyrene bead with diameter ˜4.6 μm is trapped in the counter-propagating laser beam in aqueous buffer with a fixed trap position. […] The average from 10 beads yielded K˜0.049±0.0008 pN/nm, and the stoke's drag coefficient, y=0.0364±0.0002 pN. s/μm. […] However, the autocorrelation time (τ0) defined as the τ1=1/2πfc as described by Zoldak et al., “Ultrafast folding kinetics and cooperativity of villin headpiece in single-molecule force spectroscopy”. Proc. Natl. Acad. Sci. U.S.A 110, 18156 (2013) sets the detection limit for the observable kinetics, which is different from the sampling frequencies. […] The ACF for the time series of force signal, Fi, with sampling rate δ and N data points, is calculated as,
In a constant-force (CF) experiment, the RNA is held at a preset force through feedback control. The preset force typically fluctuated around the mean with a standard deviation ±0.15 pN. In this mode, data is recorded from 4-40 kHz to capture the fast intermediates. The plots are shown as extension vs. time (as in FIG. 6A). In force-jump (FJ) assay, the force is suddenly jumped from one force to another, and then held constant thereafter, as shown in FIGS. 23A-B.
All FR, CF and FJ experiments were carried out at an ambient temperature, 25±0.5° C. The buffer in the microfluidics contained 10 mM Tris-HCl, pH 7.5 at 25° C., 250 mM NaCl, 3 mM MgCl2, and purine concentrations as indicated in wild-type aptamer. Unless stated otherwise, Mg^2+ concentration in the buffer was maintained at 3 mM in all experiments. The buffer in mutant m1 contained 5 mm Mg^2+ and 1 μM G, and in m3 contained 5 mM Mg^2+ and 200 nM Guanine. For the remaining m2, m4, m5 and m6 mutants, the buffer in single-molecule experiments was supplemented only with 3 mM Mg^2+ and 200 nM Guanine.
In the force-ramp experiment, the trap was moved away (pull cycle) from the micropipette at 200 nm/sec, which corresponded to a loading rate of 7-8 pN/sec. This movement of the trap exerted a tension at the ends of the tethered RNA aptamer. […] In the constant-force (CF) experiment, the RNA was held at a preset force (FIG. 6A). The loading rate in CF experiments was zero. The preset force typically fluctuated around the mean with standard deviation ±0.15 pN. […]

Setting [3] is: transition C′A (merged C′B and BA), F 6.1 pN, 5 mM Mg^2+.
Where [4] appears, read: transition BA (P1 folding), F 8.5 pN, 3 mM Mg^2+.
Where [5] appears, read: transition C′B (L2-L3 folding), F 8.5 pN, 3 mM Mg^2+.
[6] abbreviates: transition DC (P3 folding), F 12.0 pN, 3 mM Mg^2+.
[7] abbreviates: transition ED (P2 folding), F 13.5 pN, 3 mM Mg^2+.
Where [8] appears, read: transition C′A (merged C′B and BA), F 6.1 pN, 3 mM Mg^2+.

Values joined by “and” are separate entries in the source; they are usually repeats but may differ in a detail not shown here. Equal values may be shown once.

B1: m3: m3 mutant guanine sensing aptamer RNA (SEQ ID NO: 4); G38 replaced with adenine in the L2 loop (nucleic acid)
chain: CACUCAUAUAAUCGCGUGGAUAUGACACGCAAGUUUCUACCGGGCACCGUAAAUGUCCGACUAUGGGUG
modifications: RNA, backbone and methylation of C not given here
notes: G38 replaced with adenine in the L2 loop
Consider B1, for which the “lac Z expression / transcriptional control (in words)” value in the data set on lac Z expression was “completely de-repressed”. The “KD off relative to wild-type” value in data set [1] was about 18 fold. Besides, the “Equilibrium force F^eq” value in data set [2] (transition C′A (merged C′B and BA), 5 mM Mg^2+, 200 nM G (rates at 6.1 pN)) was 6 pN and 6.1 ± 0.02 pN. Further, in data set [2] (setting [3]), the Folding rate kf came to 0.8 ± 0.05 s⁻¹, the “Transition distance ΔX” value is listed as 12.5 ± 0.4 nm and the Unfolding rate ku amounted to 0.69 ± 0.05 s⁻¹. Moreover, the “ΔG (0)” value in data set [2] (transition C′A (merged C′B and BA), from data at 6.1 pN, 5 mM Mg^2+) is on record as −12.7 ± 0.6 kBT.

B2: m8: m8 mutant guanine sensing aptamer RNA (SEQ ID NO: 9); A19G and U77C in the P1 hairpin (nucleic acid)
chain: CACUCGUAUAAUCGCGUGGAUAUGGCACGCAAGUUUCUACCGGGCACCGUAAAUGUCCGACUACGGGUG
modifications: RNA, backbone and methylation of C not given here
notes: A19G and U77C in the P1 hairpin
Regarding B2, the “lac Z expression / transcriptional control (in words)” value in the data set on lac Z expression is listed as “stringent control”. Moreover, the “Equilibrium force F^eq” value is given as 8.8 ± 0.2 pN in data set [2] (transition BA (P1 folding), 3 mM Mg^2+, 200 nM G (rates at 8.5 pN)); 8.4 ± 0.3 pN in data set [2] (transition C′B (L2-L3 folding), 3 mM Mg^2+, 200 nM G (rates at 8.5 pN)); 11.8 ± 0.1 pN in data set [2] (transition DC (P3 folding), 3 mM Mg^2+, 200 nM G (rates at 12.0 pN)); 13.5 ± 0.03 pN in data set [2] (transition ED (P2 folding), 3 mM Mg^2+, 200 nM G (rates at 13.5 pN)). In addition, the Folding rate kf in data set [2] (setting [4]) was determined as 0.4 ± 0.05 s⁻¹; in data set [2] (setting [5]), 1.4 ± 0.2 s⁻¹; in data set [2] (setting [6]), 15.9 ± 0.4 s⁻¹; in data set [2] (setting [7]), 10.5 ± 0.4 s⁻¹. For the same molecule, the Unfolding rate ku amounted to 0.2 ± 0.05 s⁻¹ in data set [2] (setting [4]), 1.5 ± 0.2 s⁻¹ in data set [2] (setting [5]), 17.5 ± 0.5 s⁻¹ in data set [2] (setting [6]) and 13.2 ± 0.5 s⁻¹ in data set [2] (setting [7]). Also, the “Transition distance ΔX” value is 9.5 ± 0.3 nm in data set [2] (transition BA (P1 folding), F 8.5 pN, 3 mM Mg^2+, no helix width adjustment); 3.6 ± 0.2 nm in data set [2] (setting [5]); 7.7 ± 0.2 nm in data set [2] (setting [6]); 7.0 ± 0.2 nm in data set [2] (setting [7]). Further, the “ΔG (0)” value in data set [2] (transition BA (P1 folding), from data at 8.5 pN, 3 mM Mg^2+) was −14.3 kBT and −14.3 ± 0.7 kBT; in data set [2] (transition C′B (L2-L3 folding), from data at 8.5 pN, 3 mM Mg^2+) it was −7.4 ± 0.5 kBT; in data set [2] (transition DC (P3 folding), from data at 12.0 pN, 3 mM Mg^2+), −15.5 ± 0.6 kBT; in data set [2] (transition ED (P2 folding), from data at 13.5 pN, 3 mM Mg^2+), −16.0 ± 0.7 kBT.

B3: m2: m2 mutant guanine sensing aptamer RNA (SEQ ID NO: 3); G37A in L2 and C61U in L3 (nucleic acid)
chain: CACUCAUAUAAUCGCGUGGAUAUAGCACGCAAGUUUCUACCGGGCACUGUAAAUGUCCGACUAUGGGUG
modifications: RNA, backbone and methylation of C not given here
notes: G37A in L2 and C61U in L3
Regarding B3, the “lac Z expression / transcriptional control (in words)” value in the data set with lac Z expression is on record as “completely de-repressed”. Besides, the “KD off relative to wild-type” value in data set [1] was about 9 fold. For the same molecule, in data set [1] (30° C., 50 mM K^+ Hepes pH 7.5, 100 mM KCl, 10 mM MgCl2, read-out: KD for guanine), the Kd came to 36 ± 0.2 nM. In data set [2] (transition C′A (merged C′B and BA), 3 mM Mg^2+, 200 nM G (rates at 6.1 pN)), the “Equilibrium force F^eq” value was 6 pN and 6.0 ± 0.03 pN. For the same molecule, in data set [2] (setting [8]), the Folding rate kf came to 0.53 ± 0.06 s⁻¹, the “Transition distance ΔX” value is reported as 12.4 ± 0.4 nm and the Unfolding rate ku is 0.8 ± 0.11 s⁻¹. Further, the “ΔG (0)” value in data set [2] (transition C′A (merged C′B and BA), from data at 6.1 pN, 3 mM Mg^2+) is on record as −11.9 ± 0.6 kBT.
